Source: patent CN107522783A (HUABO BIOPHARM MEDICINE TECH SHANGHAI CO LTD, dated 2017)

T1: Recombinant mouse IL-17A (Sino Biological, PBV10159R-010) (mouse, UniProt Q62386 26-158)
T1 construct: Bought recombinant protein; also called 小鼠的IL-17A
T1 sequence (looked up): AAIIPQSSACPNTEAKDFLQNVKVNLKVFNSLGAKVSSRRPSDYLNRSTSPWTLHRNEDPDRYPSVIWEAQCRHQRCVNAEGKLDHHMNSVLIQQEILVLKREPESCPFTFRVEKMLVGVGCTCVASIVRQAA

T2: Recombinant human IL-17A (Sino Biological, 12047-HNAS) (human, UniProt Q16552 24-155)
T2 construct: mature; Bought recombinant protein; also called 人IL-17A; huIL-17A
T2 sequence (looked up): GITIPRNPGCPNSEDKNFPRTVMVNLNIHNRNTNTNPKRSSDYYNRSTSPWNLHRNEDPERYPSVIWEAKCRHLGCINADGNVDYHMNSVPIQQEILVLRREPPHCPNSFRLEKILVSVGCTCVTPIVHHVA

T3: Recombinant marmoset IL-17A (Sino Biological, 90287-CNAE-100) (marmoset, UniProt A0ACM8QD00 24-153)
T3 construct: Bought recombinant protein; also called 狨猴IL-17A
T3 sequence: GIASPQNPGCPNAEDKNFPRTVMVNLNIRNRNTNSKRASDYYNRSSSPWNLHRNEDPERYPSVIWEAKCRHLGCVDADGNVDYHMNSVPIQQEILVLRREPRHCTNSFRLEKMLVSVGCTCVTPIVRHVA

B1: 嵌合抗体 (antibody, V domains shown)
VH: QVQLQQSGPEVVRPGVSVKISCKGSGYTFTDYAMHWVKQSHAKSLEWIGVIGPYNDNTNYNQKFKGKATMTVDKSSSTAYMEIARLTSEDSAIYYCARGERYFDYWGQGTTLTVSS
VL: DIQMTQSSSYLSVSLGGRVTITCRASDHINNWLAWYQQKPGNAPRLLIYGATSLETGVPSRFSGSGSGKDYTLSITSLQTEDVATYYCQQYWTIPLTFGAGTKLELK
notes: also called chimeric 14F10/9F6 antibody; 本发明嵌合抗体
B2: 人源化抗体 (antibody, V domains shown)
VH: QVQLVQSGAEVKKPGASVKVSCKASGYTFTDYAMHWVRQAPGQGLEWMGVIGPYNDNTNYAQKFQGRVTMTVDTSTSTVYMELSSLRSEDTAIYYCARGERYFDYWGQGTTVTVSS
VL: DIQMTQSPSTLSASVGDRVTITCRASDHINNWLAWYQQKPGKAPKLLIYGATSLETGVPSRFSGSGSGTEYTLTISSLQPDDFATYYCQQYWTIPLTFGQGTKLEIK
notes: Expressed in CHO-K1; also called IL17-HC5-1D4/IL17-LC5-1C5; 本发明人源化抗体

What was measured:
[1] = molecular target: T1, Recombinant mouse IL-17A (Sino …); assay: indirect ELISA, mouse IL-17A coated at 1 μg/ml; paragraph 219 says 与小鼠的IL-17A无结合
[2] = molecular target: T2, Recombinant human IL-17A (Sino …); assay: Biacore SPR, antibody captured on anti-human capture CM5 chip, IL-17A as analyte, 1:1 model
[3] = molecular target: T3, Recombinant marmoset IL-17A (Sino …); assay: indirect ELISA, marmoset IL-17A coated (Table 6)
[4] = molecular target: T2, Recombinant human IL-17A (Sino …); assay: indirect ELISA, human IL-17A coated (Table 5, species cross-reactivity)
[5] = molecular target: T2, Recombinant human IL-17A (Sino …); assay: indirect ELISA, human IL-17A coated at 1 μg/ml

Binder	binding result [1]	Kd [2] [nM]	koff [2] [s⁻¹]	kon [2] [M⁻¹ s⁻¹]	EC50 [3] [µg/mL]	EC50 [4] [µg/mL]	EC50 [5] [µg/mL]
B1	no binding	0.097	0.000101	1.04e+06	0.0264	0.03	0.03
B2		0.019	0.000181	9.56e+06			
